In paper PMC6637906:

System: GST-TfmR (Xanthomonas citri subsp. citri 306)
Assay: EMSA
Details: LightShift Chemiluminescent EMSA Kit per manufacturer; 1-2 ng biotin DNA, 20 pmol GST-TfmR, 15 min (Fig. 6); buffer, salt, pH and temperature not stated

Q: With pmhpC/fadE promoter as the substance, how does the Kd read?
A: 87 nM
